Results as given in PMC5591422, “A Peptide-Fc Opsonin with Pan-Amyloid Reactivity” (Frontiers in Immunology, 2017).
Ends that are not written are not given here.

Key:
[1] = biological target: rVλ6Wil amyloid-like fibrils; experiment: SPR; BIAcore X, CM5 chip coated with rVλ6Wil fibrils (channel 1) and rVλ6Wil monomer (channel 2, subtracted as control); Fcp5 2 µg/mL or p5 0.2 µg/mL, 70 µL, 20 µL/min, 200 s binding and 200 s dissociation; two-state binding algorithm with conformational change
[2] = biological target: Aβ(1–40) amyloid-like fibrils; experiment: ELISA; EuLISA: amyloid-like fibrils (0.83 µM) adsorbed to microplate wells overnight at 37°C, blocked with 1% BSA in PBS; Fcp5, biotinylated-p5 or Fc2a titrated in PBS with 1% BSA and 0.05% tween 20; detected with biotinylated goat anti-mouse IgG and europium-streptavidin; estimated EC50
[3] = biological target: rVλ6Wil amyloid-like fibrils; experiment: as above
[4] = biological target: T1, IAPP amyloid-like fibrils (human, UniProt P10997 34-70); experiment: as above; conditions: both partners purified
T1 construct: islet amyloid polypeptide, the mature hormone; Fibrillar state; also called IAPP fibrils; islet amyloid polypeptide fibrils; source: bought: Anaspec (90% pure); fibrils prepared in sterile PBS
T1 peptide (looked up): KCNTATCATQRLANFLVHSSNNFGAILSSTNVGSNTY

Binder	Kd [1] [nM]	signal deflection [1] [au]	EC50 [2] [nM]	EC50 [3] [nM]	EC50 [4] [nM]
VTPTVGGGYSKAQKAQAKQAKQAQKAQKAQAKQAKQVTPTV (Fc fusion, not fully specified (C-terminus); also: fused to murine IgG2a Fc, glycosylated, site not given here, 5-amino acid spacer flanking p5; peptide p5, non-natural 31-amino acid polybasic peptide; Disulfide-linked dimer by SDS-PAGE (theoretical monomer Mw 31,553); Cloned into the Nco I and Bgl II sites of pFUSE-mIgG2A-Fc in frame with the IL-2 secretory leader and the Fc; also called peptide p5-Fc fusion construct; source: HEK293T/17, transient transfection, purified from culture supernatant (protein …)) [Fcp5 (peptide p5-murine IgG2a Fc fusion)]	3	200	4	1	~15
GGGYSKAQKAQAKQAKQAQKAQKAQAKQAKQ (also: biotinylated in EuLISA, site not given here, 125I-labelled in pulldown assays, non-natural 31-amino acid peptide with eight lysines in a heptad repeat; also called biotinylated-p5; source: synthetic peptide (Anaspec), purified by RP-HPLC) [peptide p5]	5	100	230	14	~200
